# Source: the supplement of paper PMC12667976
# ± gives the standard error.
# B1: library; numbered along this chain (parent)
# chain: MATDAALRRLLRLHRTEIAVAVDSAFPLLHALADHDVVPEDKFQETLHLKEKEGCPQAFHALLSWLLTQDSTAILDFWRVLFKDYNLERYGRLQPILDSFPKDVDLSQPRKGRKPPAVPKALVPPPRLPTKRKASEEARAAAPAALTPRGTASPGSQLKAKPPKKPESSAEQQRLPLGNGIQTMSASVQRAVAMSSGDVPGARGAVEGILIQQVFESGGSKKCIQVGGEFYTPSKFEDSGSGKNKARSSSGPKPLVRAKGAQGAAPGGGEARLGQQGSVPAPLALPSDPQLHQKNEDECAVCRDGGELICCDGCPRAFHLACLSPPLREIPSGTWRCSSCLQATVQEVQPRAEEPRPQEPPVETPLPPGLRSAGEEVRGPPGEPLAGMDTTLVYKHLPAPPSAAPLPGLDSSALHPLLCVGPEGQQNLAPGARCGVCGDGTDVLRCTHCAAAFHWRCHFPAGTSRPGTGLRCRSCSGDVTPAPVEGVLAPSPARLAPGPAKDDTASHEPALHRDDLESLLSEHTFDGILQWAIQSMARPAAPFPS
# Variants of: B1
# Experiment: AIRE transcriptional activation functional score (insulin promoter-GFP; nonsense median 0, synonymous median 1) (normalised score); higher = higher AIRE activity (more reporter activation)
# Details: with insulin promoter-GFP reporter in HEK293
# Experimental: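 Deep mutational scan of full-length human AIRE (codon-optimized cDNA, DT-POPCode NNN libraries over three regions) integrated at a Bxb1 landing pad in HEK293 cells carrying an insulin core promoter-GFP reporter at a Flp-In site. Cells were sorted for the top 10% GFP about 14 days after transfection. Variant frequency log-ratios (select vs non-select, TileSeq) were rescaled so that the nonsense median is 0 and the synonymous median is 1, then averaged over biological replicates.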
row,Variant,AIRE transcriptional activation functional score
1,L29N,0.195 ± 0.28
2,G263D,1.31 ± 0.2
3,E167V,1.18 ± 0.19
4,L308M,1.11 ± 0.018
5,L308N,0.45 ± 0.078
6,S217D,1.57 ± 0.053
7,A170I,0.784 ± 0.32
8,C446V,-0.492 ± 0.2
9,F26I,-0.664 ± 0.55
10,L516C,0.678 ± 0.055
11,G228D,1.05 ± 0.17
12,R247G,0.529 ± 0.32
13,R247I,0.937 ± 0.15
14,V443A,0.969 ± 0.35
15,V443S,0.937 ± 0.33
16,Y85L,0.211 ± 0.76
17,H30E,0.323 ± 0.48
18,L28E,-1.34 ± 0.96
19,D41K,-1.32 ± 0.19
20,R79V,0.88 ± 0.41
21,L75T,1.46 ± 0.32

row,Variant,AIRE transcriptional activation functional score
1,S476D,0.455 ± 0.12
2,R356P,0.873 ± 0.25
3,R356T,0.752 ± 0.28
4,G382E,1.19 ± 0.15
5,R473F,0.997 ± 0.18
6,D439R,0.536 ± 0.33
7,T151V,1.5 ± 0.29
8,G274S,1.09 ± 0.32
9,A121Q,0.141 ± 0.53
10,A121D,0.847 ± 0.36
11,E40L,0.272 ± 0.29
12,S412P,0.711 ± 0.4
13,L255H,1.28 ± 0.12
14,T391R,1.15 ± 0.23
15,G440V,1.3 ± 0.26
16,G440K,0.598 ± 0.11
17,D503E,0.774 ± 0.081
18,G498K,0.572 ± 0.066
19,G498V,1.36 ± 0.095
20,P325R,0.876 ± 0.29
21,S402N,1.13 ± 0.11

row,Variant,AIRE transcriptional activation functional score
1,S402E,0.833 ± 0.11
2,R303A,0.349 ± 0.41
3,L273Q,1.72 ± 0.43
4,L273S,0.975 ± 0.53
5,S135W,1.79 ± 0.1
6,V362D,1.3 ± 0.19
7,V20G,-0.208 ± 0.36
8,P119C,1.04 ± 0.56
9,P360T,0.775 ± 0.21
10,P360N,1 ± 0.14
11,H523F,0.43 ± 0.12
12,Q534T,1.76 ± 0.11
13,A500S,1.17 ± 0.22
14,L428D,0.545 ± 0.29
15,P497A,1.16 ± 0.32
16,P497V,1.19 ± 0.32
17,P497D,0.292 ± 0.16
18,G462H,0.925 ± 0.089
19,C322G,1.24 ± 0.1
20,G333M,1.72 ± 0.15
21,G201M,1.67 ± 0.086

row,Variant,AIRE transcriptional activation functional score
1,V345S,0.912 ± 0.16
2,V345I,0.913 ± 0.24
3,K159P,0.44 ± 0.17
4,G369S,0.939 ± 0.38
5,Q212E,0.507 ± 0.2
6,Q212A,-0.0175 ± 0.1
7,E383T,1.49 ± 0.074
8,P125W,1.36 ± 0.14
9,P125Q,0.768 ± 0.42
10,P125S,1.04 ± 0.39
11,P282T,1.27 ± 0.22
12,L210M,0.6 ± 0.11
13,L210W,0.57 ± 0.062
14,T72C,0.562 ± 0.31
15,R272T,0.941 ± 0.33
16,L175G,0.614 ± 0.4
17,S464T,0.783 ± 0.11
18,M184L,0.411 ± 0.29
19,M184G,1.01 ± 0.16
20,M184A,0.129 ± 0.52
21,M184W,0.275 ± 0.042
